{
  "source": "paper PMC4136673",
  "note": "Ends that are not written are not given here. * marks the point of attachment. Pyruvoyl = CC(=O)C(=O)*",
  "data": [
    {"target": "T1, His6-ElxO (Staphylococcus epidermidis 15X154) (UniProt I6ZQW6)", "T1 sequence": "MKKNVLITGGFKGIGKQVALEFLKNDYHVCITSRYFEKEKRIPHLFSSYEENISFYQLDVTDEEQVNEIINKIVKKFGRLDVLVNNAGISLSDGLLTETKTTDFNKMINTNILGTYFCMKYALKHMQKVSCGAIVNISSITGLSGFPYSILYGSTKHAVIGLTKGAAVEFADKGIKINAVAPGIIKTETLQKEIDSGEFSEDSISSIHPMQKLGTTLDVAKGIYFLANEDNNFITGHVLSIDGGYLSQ", "units": {"kcat/Km of reduction by His6-ElxO with NADPH (absorbance at 340 nm)": "M⁻¹ s⁻¹"}, "values": [
      {"molecule": "Pyr-A (peptide)", "kcat/Km of reduction by His6-ElxO with NADPH (absorbance at 340 nm)": "< 0.03"},
      {"molecule": "Pyr-AA (peptide)", "kcat/Km of reduction by His6-ElxO with NADPH (absorbance at 340 nm)": "< 0.03"},
      {"molecule": "Pyr-AAI (peptide)", "kcat/Km of reduction by His6-ElxO with NADPH (absorbance at 340 nm)": 0.06},
      {"molecule": "Pyr-AAIVKBBIKAAKK (peptide)", "kcat/Km of reduction by His6-ElxO with NADPH (absorbance at 340 nm)": 14.2},
      {"molecule": "Pyruvoyl-AAIVK", "note": "[Pyr-AAIVK]", "kcat/Km of reduction by His6-ElxO with NADPH (absorbance at 340 nm)": 2.43},
      {"molecule": "Pyruvoyl-AAIV", "note": "[Pyr-AAIV]", "kcat/Km of reduction by His6-ElxO with NADPH (absorbance at 340 nm)": 1.13}
    ]}
  ]
}
